Experimental findings from US20220162322A1 (CAPELLA BIOSCIENCE, published 2022) are described below.

Data set [1] deals with the molecule itself. Kind of data set: High-Mass MALDI mass spectrometry with chemical cross-linking. On the procedure:
For the characterization of BDCA2(CLEC4C)/3E5 (variant 12) complexes, the measurements were performed using an Autoflex II MALDI ToF ToF mass spectrometer (Bruker) equipped with a CovalX HM4 interaction module. The CovalX interaction module contains a detecting system designed to optimize detection up to 2 MDa with nano-molar sensitivity. […] In order to characterize CLEC4C we submitted the sample to trypsin, chymotrypsin, Asp-N, elastase and thermolysin proteolysis followed by nLC-LTQ-Orbitrap MS/MS analysis. For the characterization, a nLC Ultimate 3000-RSLC system in line with a LTQ-Orbitrap mass spectrometer (Thermo Scientific) was used. Sample preparation was as follows:
In order to determine the epitope of CLEC4C/3E5 complex with high resolution, the protein complexes were incubated with deuterated cross-linkers and subjected to multi-enzymatic cleavage. After enrichment of the crosslinked peptides, the samples were analyzed by high resolution mass spectrometry (nLC-LTQ-Orbitrap MS) and the data generated were analyzed using XQuest and Stavrox software.

The target in data set [2] is T1, human BDCA-2-Fc (hIgG1-Fc-hBDCA-2) (human).
T1 construct: also called huBDCA2-Fc
Kind of data set: SPR (BIAcore T200), huBDCA2-Fc immobilised on CM5 chip, mAb injected. On the procedure: A BIAcore T200 was used with BIAcore run buffer (HBS-EP) at pH7.4. 692RU of huBDCA2-Fc was immobilized to a CM5 chip (CFJB156) utilising 5 μg/ml of huBDCA2-Fc with the BIAcore EDC/NHS kit according to the manufacturer's instructions. Two-fold dilutions of the humanized mAbs were injected starting at 200 nM down to 3.1 nM with a contact time of 60 s at a flow of 30 or 60 ul/min at 25° C. followed by an off-rate wash for 5 minutes with BIAcore buffer. […] The BIAcore T200 software was used to calculate Ka (1/Ms), Kd (1/s) and the KD (nM).
For orientation: Surface plasmon resonance follows binding to a sensor surface in real time, without labels.

Data set [3] concerns the target T2, BDCA-2 (CLEC4C, CD303) on human plasmacytoid dendritic cells (purified pDC or pDC within PBMC) (human, UniProt Q8WTT0 1-213).
T2 sequence: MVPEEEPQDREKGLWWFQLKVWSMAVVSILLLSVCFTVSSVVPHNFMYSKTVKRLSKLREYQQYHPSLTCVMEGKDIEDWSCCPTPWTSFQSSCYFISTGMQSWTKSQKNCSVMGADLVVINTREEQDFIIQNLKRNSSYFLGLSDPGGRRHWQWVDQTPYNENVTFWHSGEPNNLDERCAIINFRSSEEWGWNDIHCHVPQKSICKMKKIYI
The data set can be described thus: cell-based or functional assay.

Data set [4] addresses T2, BDCA-2 (CLEC4C, CD303) on human …. Kind of data set: cell-based or functional assay. This is another data set of the same source.
Data set [5] concerns the target T1, human BDCA-2-Fc (hIgG1-Fc-hBDCA-2). Kind of data set: SPR (BIAcore), comparison of KD.
For data set [6] the target is unchanged. The data set can be described thus: ELISA on plate-coated human BDCA2-Fc. How it is done:
100 ul per well of 0.5 μg/ml of human BDCA2-Fc in PBS pH 7.4 was incubated overnight at 4 C. The wells were then washed 3 times with PBST (PBS+0.05% Tween 20) and then blocked with 250 ul 4% Skimmed Milk (Marvel, cat. no. 3023033 Lot no. 7169) in PBS for 120 min at RT. The wells were washed and then incubated with 100 ul per well of humanized mAbs at 3 fold dilutions (from 1 μg/ml to 0.001 μg/ml) in 1% Skimmed Milk PBS buffer at pH 7.4. After 60 min at RT the wells were washed 3 times in PBST and 100 ul of mouse anti-human IgG (anti-CH1-HRP; 1:1000, BD Pharmigen cat. no. 555788) or donkey anti-mouse IgG (anti-mouse IgG-HRP) at 1:5000 dilution (Jackson ImmunoResearch, Cat. no. 715-035-150) in 1% Skimmed Milk PBS was added. Development was with TMB (ThermoFisher, cat. no. 00-4201-56), 100 ul/well and the reaction stopped with 100 μl/well H2SO4 (cat. nr. J/8430/15, lot nr.) and the absorbance read at 450 nm. The EC50 was calculated using Graphpad Prism software. A negative (1% Skimmed Milk/PBS) and positive control (anti-BDCA-2, AC144, Miltenyi Biotec, cat. no. 130-090-690) were utilised in the assay.

By Kd is commonly meant a measure of binding affinity in units of concentration. A higher Kd goes with weaker binding. The term EC50 denotes the concentration needed to bring the measured effect to its halfway point. The low end stands for an effect from little substance, the high end for a need for much substance.

T1 sequence (chain, as listed by the source limits assumed): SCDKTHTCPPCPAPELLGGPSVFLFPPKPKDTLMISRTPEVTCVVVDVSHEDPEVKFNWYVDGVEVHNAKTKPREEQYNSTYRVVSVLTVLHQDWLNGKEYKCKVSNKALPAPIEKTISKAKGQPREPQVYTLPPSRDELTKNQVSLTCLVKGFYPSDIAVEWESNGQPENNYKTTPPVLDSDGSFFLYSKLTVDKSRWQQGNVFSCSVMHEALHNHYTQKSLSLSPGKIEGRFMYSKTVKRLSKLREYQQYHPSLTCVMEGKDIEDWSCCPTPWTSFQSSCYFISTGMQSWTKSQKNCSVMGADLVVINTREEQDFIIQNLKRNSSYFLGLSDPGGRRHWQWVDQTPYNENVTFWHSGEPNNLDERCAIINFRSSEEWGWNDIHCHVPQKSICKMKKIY

B1: CLEC4C (BDCA-2) protein used for cross-linking / mass spectrometry epitope mapping (receptor)
chain: NFMYSKTVKRLSKLREYQQYHPSLTCVMEGKDIEDWSCCPTPWTSFQSSCYFISTGMQSWTKSQKNCSVMGADLVVINTREEQDFIIQNLKRNSSYFLGLSDPGGRRHWQWVDQTPYNENVTFWHSGEPNNLDERCAIINFRSSEEWGWNDIHCHVPQKSICKMKKIYI
notes: also called BDCA2(CLEC4C)
For the molecule B1, in data set [1], the binding result is given as “no binding”.

B2: 3E05_var12 (antibody, human IgG1, V domains shown)
VH: EVQLVESGGGLVKPGGSLRLSCAASGFTFSSYTMSWVRQAPGKGLEWVAYISSGGGQTYYPDSVKGRFTISRDNAKNSLYLQMNSLRAEDTAVYYCARHDYYEGGLYYAMDYWGQGTLVTVSS
VL: DIVMTQSPDSLAVSLGERATINCKSSQSVDYDGDSSMNWYQQKPGQPPKLLIYAASTLESGVPSRFSGSGSGTDFTLTISSLQAEDVATYYCQQTNEDPPTFGGGTKVEIK
notes: also called 3E05 VL3VH4 (var_12); 3E05VL3VH4 (var_12)
For the molecule B2, the Kd in data set [2] was below 10 pM. Further, in data set [3], the “IC50, ng/ml; inhibition of IFNα from ODN stimulated healthy donor PBMC” value came to 14.3 ng/mL and the “IC90, ng/ml; inhibition of IFNα from ODN stimulated healthy donor PBMC” value was 127 ng/mL. In data set [4], the “IC50, nM; inhibition of IFNα from ODN stimulated healthy donor PBMC” value worked out at 0.1 nM and the “IC90, nM; inhibition of IFNα from ODN stimulated healthy donor PBMC” value was 0.85 nM. Also, the “fold higher affinity than parental wild type 3E05 and AC144” value in data set [5] is above 100 fold. Moreover, in data set [6], the 50% effective concentration (EC50) worked out at 330 pM. In data set [1], the binding result is recorded as “no binding”.
